Test results reported in patent US20150011567.

T1: biotinylated H4-derived unphosphorylated peptide TVTAMDVVYALKRQGRT
T1 chain: TVTAMDVVYALKRQGRT


How the values were obtained:
[1] = target: T1, biotinylated H4-derived …
[2] = target: purified human H3 recombinant protein (NEB), P20929
[3] = target: purified human H4 recombinant protein (NEB), P62805

Protein	in vitro kinase assay on plate-bound peptide, ELISA with pY88-H4 antibodies [1]	in vitro kinase reaction, immunoblot with pTyr99-H3 antibody [2]	in vitro kinase assay, immunoblot with pTyr51-H4 antibody [3]
purified Ack1 (protein) MQPEEGTGWLLELLSEVQLQQYFLRLRDDLNVTRLSHFEYVKNEDLEKIGMGRPGQRRLWEAVKRRKALCKRKSWMSKVFSGKRLEAEFPPHHSQSTFRKTSPAPGGPAGEGPLQSLTCLIGEKDLRLLEKLGDGSFGVVRRGEWDAPSGKTVSVAVKCLKPDVLSQPEAMDDFIREVNAMHSLDHRNLIRLYGVVLTPPMKMVTELAPLGSLLDRLRKHQGHFLLGTLSRYAVQVAEGMGYLESKRFIHRDLAARNLLLATRDLVKIGDFGLMRALPQNDDHYVMQEHRKVPFAWCAPESLKTRTFSHASDTWMFGVTLWEMFTYGQEPWIGLNGSQILHKIDKEGERLPRPEDCPQDIYNVMVQCWAHKPEDRPTFVALRDFLLEAQPTDMRALQDFEEPDKLHIQMNDVITVIEGRAENYWWRGQNTRTLCVGPFPRNVVTSVAGLSAQDISQPLQNSFIHTGHGDSDPRHCWGFPDRIDELYLGNPMDPPDLLSVELSTSRPPQHLGGVKKPTYDPVSEDQDPLSSDFKRLGLRKPGLPRGLWLAKPSARVPGTKASRGSGAEVTLIDFGEEPVVPALRPCAPSLAQLAMDACSLLDETPPQSPTRALPRPLHPTPVVDWDARPLPPPPAYDDVAQDEDDFEICSINSTLVGAGVPAGPSQGQTNYAFVPEQARPPPPLEDNLFLPPQGGGKPPSSAQTAEIFQALQQECMRQLQAPAGSPAPSPSPGGDDKPQVPPRVPIPPRPTRPHVQLSPAPPGEEETSQWPGPASPPRVPPREPLSPQGSRTPSPLVPPGSSPLPPRLSSSPGKTMPTTQSFASDPKYATPQVIQAPGPRAGPCILPIVRDGKKVSSTHYYLLPERPSYLERYQRFLREAQSPEEPTPLPVPLLLPPPSTPAPAAPTATVRPMPQAALDPKANFSTNNSNPGARPPPPRATARLPQRGCPGDGPEAGRPADKIQMAMVHGVTTEECQAALQCHGWSVQRAAQYLKVEQLFGLGLRPRGECHKVLEMFDWNLEQAGCHLLGSWGPAHHKR	Incubation of H4 peptide with WEE1 and Ack1 protein resulted in robust H4 Tyr88-phosphorylation	Ack1 directly phosphorylates histone H3 at Tyr99	
purified constitutively active E346K-Ack1 (protein) MQPEEGTGWLLELLSEVQLQQYFLRLRDDLNVTRLSHFEYVKNEDLEKIGMGRPGQRRLWEAVKRRKALCKRKSWMSKVFSGKRLEAEFPPHHSQSTFRKTSPAPGGPAGEGPLQSLTCLIGEKDLRLLEKLGDGSFGVVRRGEWDAPSGKTVSVAVKCLKPDVLSQPEAMDDFIREVNAMHSLDHRNLIRLYGVVLTPPMKMVTELAPLGSLLDRLRKHQGHFLLGTLSRYAVQVAEGMGYLESKRFIHRDLAARNLLLATRDLVKIGDFGLMRALPQNDDHYVMQEHRKVPFAWCAPESLKTRTFSHASDTWMFGVTLWEMFTYGQEPWIGLNGSQILHKIDKKGERLPRPEDCPQDIYNVMVQCWAHKPEDRPTFVALRDFLLEAQPTDMRALQDFEEPDKLHIQMNDVITVIEGRAENYWWRGQNTRTLCVGPFPRNVVTSVAGLSAQDISQPLQNSFIHTGHGDSDPRHCWGFPDRIDELYLGNPMDPPDLLSVELSTSRPPQHLGGVKKPTYDPVSEDQDPLSSDFKRLGLRKPGLPRGLWLAKPSARVPGTKASRGSGAEVTLIDFGEEPVVPALRPCAPSLAQLAMDACSLLDETPPQSPTRALPRPLHPTPVVDWDARPLPPPPAYDDVAQDEDDFEICSINSTLVGAGVPAGPSQGQTNYAFVPEQARPPPPLEDNLFLPPQGGGKPPSSAQTAEIFQALQQECMRQLQAPAGSPAPSPSPGGDDKPQVPPRVPIPPRPTRPHVQLSPAPPGEEETSQWPGPASPPRVPPREPLSPQGSRTPSPLVPPGSSPLPPRLSSSPGKTMPTTQSFASDPKYATPQVIQAPGPRAGPCILPIVRDGKKVSSTHYYLLPERPSYLERYQRFLREAQSPEEPTPLPVPLLLPPPSTPAPAAPTATVRPMPQAALDPKANFSTNNSNPGARPPPPRATARLPQRGCPGDGPEAGRPADKIQMAMVHGVTTEECQAALQCHGWSVQRAAQYLKVEQLFGLGLRPRGECHKVLEMFDWNLEQAGCHLLGSWGPAHHKR			When purified E346K-Ack1 and H4 were incubated, H4 was Tyr51-phosphorylated
